The source of these data is patent US20240254229A1 (Molecular Partners, published 2024).

Experiment [1] deals with T1, biotinylated extracellular domain of human CD33 (SEQ ID NO: 87), Fc and Avi tagged (human, UniProt P20138 18-259, biotinylated with BirA-GST (Avi tag)).
T1 construct: also called hCD33; human target hCD33
The experiment can be described thus: SPR (ProteOn XPR36), target on GLC chip.

Experiment [2] addresses T2, extracellular domain of human CD70 (SEQ ID NO: 89), hCD70-Fc-trimer, ACRO Biosystems (human, UniProt P32970 52-193, chemically biotinylated where the biotinylated form was used).
T2 construct: also called human CD70-Fc-trimer; Bio.CD70
T2 sequence: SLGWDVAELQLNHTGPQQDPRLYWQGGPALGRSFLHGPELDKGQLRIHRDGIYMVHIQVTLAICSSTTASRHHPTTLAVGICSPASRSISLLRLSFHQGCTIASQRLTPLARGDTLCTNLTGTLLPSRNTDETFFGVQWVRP
Nature of the experiment: SPR (ProteOn XPR36), target on GLC chip.

A further experiment deals with T3, human serum albumin (human, UniProt P02768 25-609).
T3 construct: also called HSA; SA
T3 sequence (P02768 25-609 limits assumed): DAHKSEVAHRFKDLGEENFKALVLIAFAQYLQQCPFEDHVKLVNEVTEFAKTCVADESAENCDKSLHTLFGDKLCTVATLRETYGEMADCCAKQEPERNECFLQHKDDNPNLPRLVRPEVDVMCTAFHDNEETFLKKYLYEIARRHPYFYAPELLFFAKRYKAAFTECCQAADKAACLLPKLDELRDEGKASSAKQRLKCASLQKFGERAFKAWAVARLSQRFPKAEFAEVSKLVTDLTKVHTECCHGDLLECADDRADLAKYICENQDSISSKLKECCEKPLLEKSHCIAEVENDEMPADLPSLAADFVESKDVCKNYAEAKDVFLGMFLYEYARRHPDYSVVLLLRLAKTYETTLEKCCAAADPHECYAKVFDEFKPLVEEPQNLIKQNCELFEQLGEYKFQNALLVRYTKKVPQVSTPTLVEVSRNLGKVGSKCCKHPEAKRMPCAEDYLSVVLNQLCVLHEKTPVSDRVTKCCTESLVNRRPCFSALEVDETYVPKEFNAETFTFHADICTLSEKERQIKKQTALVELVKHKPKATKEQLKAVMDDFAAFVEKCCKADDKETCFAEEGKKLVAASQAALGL
Nature of the experiment: SPR (ProteOn XPR36), target on GLC chip.

Experiment [3] concerns the target T4, biotinylated extracellular domain of human CD123 (SEQ ID NO: 88), Fc and Avi tagged (human, UniProt P26951 19-303, biotinylated with BirA-GST (Avi tag)).
T4 construct: also called hCD123
T4 sequence: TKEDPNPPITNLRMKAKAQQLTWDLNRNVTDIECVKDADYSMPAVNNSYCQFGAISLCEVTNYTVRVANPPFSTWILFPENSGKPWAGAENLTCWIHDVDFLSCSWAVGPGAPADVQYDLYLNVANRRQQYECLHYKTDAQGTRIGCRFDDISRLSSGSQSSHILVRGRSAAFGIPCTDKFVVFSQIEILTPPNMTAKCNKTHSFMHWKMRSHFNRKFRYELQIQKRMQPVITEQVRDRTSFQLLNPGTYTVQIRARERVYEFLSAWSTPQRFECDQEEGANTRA
The experiment can be described thus: SPR (ProteOn XPR36), target on GLC chip, DARPin as analyte.

Experiment [4] deals with T5, hCD123 (recombinant, construct not stated) (human, UniProt P26951 19-305, limits assumed).
T5 construct: also called CD123 (Ligand 2)
T5 sequence (looked up): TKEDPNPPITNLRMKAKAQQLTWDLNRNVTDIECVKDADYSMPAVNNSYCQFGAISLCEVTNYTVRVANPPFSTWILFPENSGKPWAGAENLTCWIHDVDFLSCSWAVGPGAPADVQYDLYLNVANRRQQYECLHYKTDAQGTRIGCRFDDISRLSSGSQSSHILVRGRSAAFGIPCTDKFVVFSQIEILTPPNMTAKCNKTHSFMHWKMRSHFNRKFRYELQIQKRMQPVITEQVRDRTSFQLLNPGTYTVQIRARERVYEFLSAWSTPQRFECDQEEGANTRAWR
The experiment can be described thus: switchSENSE, CD33 and CD123 on one chip; monophasic. On the procedure:
(§1) The designed ankyrin repeat proteins: DARPin® protein #20, DARPin® protein #21, DARPin® protein #22, DARPin® protein #27, DARPin® protein #40 and DARPin® protein #41 were tested in a concentration of 0.16 and 64 nM (in a buffer PE140 containing 10 mM Na2HPO4/NaH2PO4, 140 mM NaCl, 0.05% Tween20, 50 μM EDTA, 50 μM EGTA) for binding against two ligands hCD33 and hCD123, which both were immobilized simultaneously to DNA nanolevers, on the surface, at a pre-defined ratio (2:1, CD33:CD123) and 10% density (100:50) on an ADP-48-1-0 chip, where 100% density 1000 receptors/μm2 (preincubated R1-B48-CD123 and G1-A48-CD33 (100 nM) diluted in cNL-48 (dark)). Briefly the following steps were performed: [0724] Conjugation. Amine coupling of the two ligands (CD33 and CD123) to the DNA nanolever (A48, B48, respectively) and purification of the conjugates using the proFIRE® solution (Dynamic Biosensors GmbH) at 25° C. [0725] Evaluation of all the combined affinity and avidity of all different proteins to both ligands attached on the surface of an ADP chip using a DRX+ instrument (dynamic BIOSENSORS). [0726] Statistical analysis (repeatability from 2 to 5 times) including regeneration of the chip surface every concentration analyzed and long dissociation times and data were fitted using a bi-exponential global fit.

Experiment [5] concerns the target T6, hCD33 (recombinant, construct not stated) (human, UniProt P20138 18-259, limits assumed).
T6 construct: also called CD33 (Ligand 1)
Nature of the experiment: switchSENSE, hCD33 and hCD123 co-immobilised 2:1; panel headed CD33. The protocol:
as §1

Experiment [6] concerns the target T5, hCD123 (recombinant, construct not …). The experiment can be described thus: switchSENSE, hCD33 and hCD123 co-immobilised 2:1; panel headed CD123, column KD1; KD2 printed N.A. The protocol:
as §1

For experiment [7], the target named is T1, biotinylated extracellular domain of …. The experiment can be described thus: crude extract HTRF, 12 nM biotinylated hCD33. The protocol:
The extract of each lysed clone was applied as a 1:900 dilution (final concentration) in PBSTB (PBS supplemented with 0.1% Tween 20® and 0.2% (w/v) BSA, pH 7.4) together with 12 nM (final concentration) biotinylated hCD33, 1:200 (final concentration) of anti-strep-D2 HTRF antibody-FRET acceptor conjugate (Cisbio) and 1:200 (final concentration) of anti-6His-Tb antibody FRET donor conjugate (Cisbio) to a well of 384 well plate and incubated for 90 minutes at RT. The HTRF was read-out on a Tecan M1000 using a 340 nm excitation wavelength and a 665±10 nm emission filter. […] An amino acid sequence of a selected ankyrin repeat domain that specifically bind to hCD33 are provided in SEQ ID NO: 15.

Experiment [8] concerns the target T6, hCD33 (recombinant, construct not …). The experiment can be described thus: switchSENSE, CD33 and CD123 on one chip; monophasic. On the procedure:
as §1

The target in experiment [9] is T5, hCD123 (recombinant, construct not …). Nature of the experiment: switchSENSE, hCD33 and hCD123 co-immobilised 2:1; panel headed CD123, y axis kon. The protocol: as §1
The target of experiment [10] is T6, hCD33 (recombinant, construct not …). Nature of the experiment: switchSENSE, hCD33 and hCD123 co-immobilised 2:1; panel headed CD33, column KD1; KD2 printed N.A. On the procedure: as §1
The target of experiment [11] is T4, biotinylated extracellular domain of …. Nature of the experiment: SPR (ProteOn XPR36), target on GLC chip.
Experiment [12] has as its target T2, extracellular domain of human CD70 (SEQ …). The experiment can be described thus: SPR (ProteOn XPR36), target on GLC chip, DARPin as analyte.
The target of experiment [13] is T7, biotinylated extracellular domains of human CD123 (uniprot ID 26951), Fc format (human, UniProt P26951 19-305, biotinylated).
T7 construct: extracellular domain
T7 sequence (looked up): T5 sequence (looked up)
Nature of the experiment: ribosome display selection, crude extract HTRF. A general note: TR-FRET usually uses a lanthanide donor and a delayed reading to cut background.

For experiment [14], the target named is T8, human scCD3εγ (scCD3εγ_Avi-Bio) (human, biotin on the C-terminal Avi-tag (in vitro, BirA) where the biotinylated form was used).
T8 construct: Used for all SPR and HTRF results on human CD3; also called recombinant human CD3; human CD3
T8 chain: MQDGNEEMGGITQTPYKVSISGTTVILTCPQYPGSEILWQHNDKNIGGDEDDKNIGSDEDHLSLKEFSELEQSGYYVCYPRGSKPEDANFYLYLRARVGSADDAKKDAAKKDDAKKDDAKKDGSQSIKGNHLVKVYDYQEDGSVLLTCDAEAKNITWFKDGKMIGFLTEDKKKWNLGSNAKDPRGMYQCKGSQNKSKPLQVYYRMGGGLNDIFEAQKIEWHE
The experiment can be described thus: ribosome display selection, crude extract HTRF.

T6 sequence (P20138 18-259 limits assumed): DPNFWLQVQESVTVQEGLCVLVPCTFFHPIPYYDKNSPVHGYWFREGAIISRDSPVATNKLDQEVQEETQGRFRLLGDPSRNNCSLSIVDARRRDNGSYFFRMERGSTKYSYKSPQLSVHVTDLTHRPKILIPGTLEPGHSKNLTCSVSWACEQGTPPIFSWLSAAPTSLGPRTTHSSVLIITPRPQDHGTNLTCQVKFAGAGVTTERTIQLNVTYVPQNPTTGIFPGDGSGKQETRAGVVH
T1 sequence (P20138 18-259 R69G): as the sequence (P20138 18-259 limits assumed) above, with R52G counted along it

B1: DARPin® protein #34 (designed binder)
chain: DLGKKLLEAALEGQLDEVRELLKAGADVNAKDQEGYTPLHLAAALGHLEIVEVLLKAGADVNAKDSIGRTPLHLAAYKGHLEIVEVLLKAGADVNAQDLLGETPADLAAEQGHQDIAEVLQKAA
notes: CD123-specific ankyrin repeat domain; not shown: N-terminal His-tag
For B1, the binding result (in [1]; in experiment [2]; with human serum albumin) was “no binding (tested: 100 nM (highest concentration))” in each case. For the same molecule, the Kd in [3] stood at 8.6 nM.

B2: DARPin® protein #21 (designed binder)
chain: DLGKKLLEAARAGQDDEVRILMANGADVNALDWLGHTPLHLAAYEGHLEIVEVLLKNGADVNAIDDNNGFTPLHLAAIDGHLEIVEVLLKNGADVNAQDKFGKTAFDISIDNGNEDLAEILQKAAGSPTPTPTTPTPTPTTPTPTPTGSDLGKKLLEAARAGQDDEVRELLKAGADVNAKDKDGYTPLHLAAREGHLEIVEVLLKAGADVNAKDKDGYTPLHLAAREGHLEIVEVLLKAGADVNAQDKSGKTPADLAADAGHEDIAEVLQKAAGSPTPTPTTPTPTPTTPTPTPTGSDLGQKLLEAAWAGQDDEVRILLAAGADVNAKNSRGWTPLHTAAQTGHLEIFEVLLKAGADVNAKNDKRVTPLHLAAALGHLEIVEVLLKAGADVNARDSWGTTPADLAAKYGHGDIAEVLQKLA
notes: also called αCD123-Ni2C-αCD3
Take B2: the koff in experiment [4] is 0.06 s⁻¹. The binding result in [5] is on record as “no binding”. Also, the Kd in [6] stood at 2.2 nM.

B3: DARPin® protein #15 (designed binder)
chain: DLGDKLLLAATSGQDDEVRILLAAGADVNAKDYDGDTPLHLAADEGHLEIVEVLLKAGADVNAKDYSGSTPLHAAAAYGHLEIVEVLLKAGADVNAQDVFGYTPADLAAYVGHEDIAEVLQKAA
notes: CD33-specific domain; screened as crude extract of a His-tagged clone (vector pMPAG06)
Take B3: in experiment [7], the binding result is “binds”.

B4: DARPin® protein #22 (designed binder)
chain: DLGKKLLEAARAGQDDEVRELLKAGADVNAKDKDGYTPLHLAAREGHLEIVEVLLKAGADVNAKDKDGYTPLHLAAREGHLEIVEVLLKAGADVNAQDKSGKTPADLAADAGHEDIAEVLQKAAGSPTPTPTTPTPTPTTPTPTPTGSDLGDKLLLAATSGQDDEVRILLAAGADVNAKDYDGDTPLHLAADEGHLEIVEVLLKAGADVNAKDYSGSTPLHAAAAYGHLEIVEVLLKAGADVNAQDVFGYTPADLAAYVGHEDIAEVLQKAAGSPTPTPTTPTPTPTTPTPTPTGSDLGQKLLEAAWAGQDDEVRILLAAGADVNAKNSRGWTPLHTAAQTGHLEIFEVLLKAGADVNAKNDKRVTPLHLAAALGHLEIVEVLLKAGADVNARDSWGTTPADLAAKYGHGDIAEVLQKLA
notes: also called Ni2C-αCD33-αCD3
On to B4, for which, in [8], the koff stood at 0.01 s⁻¹. In [9], the binding result is “no binding”. In addition, the Kd in experiment [10] was 15 nM.

B5: DARPin® protein #33 (designed binder)
chain: DLGYKLLQAAYDGQLDEVRILLKAGADVNAKDSRGQTPLHYAASIGHLEIVEVLLKAGADVNAKDDHGWTPLHLAAWSGHLEIVEVLLKAGADVNAQDQEGTTPADLAAVQGHQDIAEVLQKAA
notes: CD70-specific ankyrin repeat domain; not shown: N-terminal His-tag
As to B5, the binding result (in experiment [1]; in experiment [11]; with human serum albumin) was “no binding (tested: 100 nM (highest concentration))” each time. The molecule further gave a Kd in experiment [12] of 0.18 nM.

B6: DARPin® protein #6 (designed binder)
chain: DLGKKLLEAARAGQDDEVRILMANGADVNALDWLGHTPLHLAAYEGHLEIVEVLLKNGADVNAIDDNNGFTPLHLAAIDGHLEIVEVLLKNGADVNAQDKFGKTAFDISIDNGNEDLAEILQKAA
notes: CD123-specific domain
Regarding B6, the binding result in experiment [13] was “binds”.

B7: DARPin® protein #2 (designed binder)
chain: MRGSHHHHHHDLGQKLLEAAWAGQDDEVRELLKAGADVNAKNSRGWTPLHTAAQTGHLEIFEVLLKAGADVNAKDDKGVTPLHLAAALGHLEIVEVLLKAGADVNAQDSWGTTPADLAAKYGHEDIAEVLQKAA
notes: CD3-specific ankyrin repeat domain
Consider B7, for which, in experiment [14], the binding result is given as “binds”.

In general, Kd refers to the equilibrium constant for the complex coming apart. By koff is commonly meant the rate constant with which the complex falls apart.
